Where a chain is given by its changes, count along the chain named.

The values below come from patent US20240247080A1, “GLP1/GIP/NPY2 RECEPTOR TRIPLE AGONISTS” (Boehringer Ingelheim International GmbH, priority 2022, published 2024).

Common to all, as to assay: cell-based or functional assay
In assay [1] the target is human GLP-1 receptor (human, UniProt P43220 24-463).
Assay [2] concerns the target T1, human GIP receptor (human, UniProt P48546 22-466).
T1 sequence (looked up): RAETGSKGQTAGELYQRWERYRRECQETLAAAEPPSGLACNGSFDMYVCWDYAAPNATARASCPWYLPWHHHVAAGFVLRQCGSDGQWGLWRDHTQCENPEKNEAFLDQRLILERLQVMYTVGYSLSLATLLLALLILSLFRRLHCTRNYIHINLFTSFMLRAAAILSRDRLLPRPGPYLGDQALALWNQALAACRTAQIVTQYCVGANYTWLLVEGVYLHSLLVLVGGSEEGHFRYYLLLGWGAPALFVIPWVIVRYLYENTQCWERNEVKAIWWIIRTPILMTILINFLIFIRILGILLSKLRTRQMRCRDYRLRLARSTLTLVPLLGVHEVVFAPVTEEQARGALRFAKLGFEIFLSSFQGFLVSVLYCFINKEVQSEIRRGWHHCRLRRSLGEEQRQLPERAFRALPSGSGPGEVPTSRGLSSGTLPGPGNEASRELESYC

Assay [3] addresses T2, human neuropeptide Y2 receptor (human, UniProt P49146 1-381).
T2 sequence (looked up): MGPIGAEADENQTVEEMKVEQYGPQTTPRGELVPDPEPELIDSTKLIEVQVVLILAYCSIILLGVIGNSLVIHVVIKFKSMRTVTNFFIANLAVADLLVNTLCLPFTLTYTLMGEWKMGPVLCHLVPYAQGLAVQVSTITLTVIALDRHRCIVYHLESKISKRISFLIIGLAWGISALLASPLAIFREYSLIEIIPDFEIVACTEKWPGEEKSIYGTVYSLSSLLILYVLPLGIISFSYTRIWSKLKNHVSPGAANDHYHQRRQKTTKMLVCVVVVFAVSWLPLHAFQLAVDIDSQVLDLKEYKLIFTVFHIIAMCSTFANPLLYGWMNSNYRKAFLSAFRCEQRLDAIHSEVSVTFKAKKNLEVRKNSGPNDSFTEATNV

Assay [4] concerns the target human GLP-1 receptor (human, UniProt P43220 24-463). This is another data set of the same source.
The target in assay [5] is T3, human GIP receptor (human, UniProt P48546 22-466).
T3 sequence (looked up): T1 sequence (looked up)
This is another data set of the same source.

Assay [6] concerns the target T4, human neuropeptide Y2 (NPY2) receptor (human, UniProt P49146 1-381).
T4 sequence (looked up): T2 sequence (looked up)

B1: Compound 259 (peptide)
peptide: YXEGTFTSDYSIXLEKQAQXAFVEWLIKGGPSSGASLRHYYNWLTRQRY
modifications: Aib at 2, 13, 20; K28 side chain acylated with C18DA-gGlu-gGlu-gGlu-gGlu-gGlu-gGlu-eLys; C-terminal amide (NH2)
B1: in the assay with human GLP-1 receptor [1], the “EC50 hGLP1R 0.5% hP (CreLuc)” value was 0.09 nM and the “EC50 hGLP1R 100% hP (CreLuc)” value worked out at 2.55 nM. For the same molecule, in the assay with human GIP receptor [2], the “EC50 hGIPR 0.5% hP (CreLuc)” value worked out at 0.22 nM and the “EC50 hGIPR 100% hP (CreLuc)” value was 0.91 nM. In assay [3], the “EC50 hNPY2R 0.5% hP (CreLuc)” value was found to be 10.7 nM and the “EC50 hNPY2R 100% hP (CreLuc)” value is 29.3 nM.

B2: Compound 261 (peptide)
peptide: B1 peptide
modifications: Aib at 2, 13, 20; K28 side chain acylated with C18DA-gGlu-gGlu-gGlu-gGlu-gGlu-OEG-OEG; C-terminal amide (NH2)
Regarding B2, in the assay with human GLP-1 receptor [1], the “EC50 hGLP1R 0.5% hP (CreLuc)” value is 0.15 nM and the “EC50 hGLP1R 100% hP (CreLuc)” value came to 3.91 nM. Further, in the assay with human GIP receptor [2], the “EC50 hGIPR 0.5% hP (CreLuc)” value stood at 0.18 nM and the “EC50 hGIPR 100% hP (CreLuc)” value was determined as 1.15 nM. In addition, in assay [3], the “EC50 hNPY2R 0.5% hP (CreLuc)” value came to 24.1 nM and the “EC50 hNPY2R 100% hP (CreLuc)” value amounted to 64 nM.

B3: Compound 84 (peptide)
peptide: B1 peptide with A35Q
modifications: Aib at 2, 13, 20; K28 side chain: C20DA-gGlu-gGlu-gGlu-gGlu-gGlu-gGlu-eLys; C-terminal NH2
B3: the “EC50, CreLuc assay, 0.5% hP” value was 0.13 nM with human GLP-1 receptor [4], 0.23 nM in the assay with human GIP receptor [5] and 8.31 nM in assay [6]. Further, the figures for the “EC50, CreLuc assay, 100% hP” value (with human GLP-1 receptor [4]; with human GIP receptor [5]; in assay [6]) were 2.63 nM, 1.43 nM and 35.2 nM, respectively.

B4: Compound 83 (peptide)
peptide: B1 peptide
modifications: Aib at 2, 13, 20; NMeR 48; K28 side chain: C20DA-gGlu-gGlu-gGlu-gGlu-gGlu-gGlu-eLys; C-terminal NH2
On to B4, for which the “EC50, CreLuc assay, 0.5% hP” value in the assay with human GLP-1 receptor [4] turned out to be 0.17 nM; with human GIP receptor [5] it was 0.13 nM; in assay [6] it was 28.8 nM. Besides, the “EC50, CreLuc assay, 100% hP” value in the assay with human GLP-1 receptor [4] is 2.87 nM; in the assay with human GIP receptor [5], 1.06 nM; in assay [6], 80.6 nM.

B5: Compound 86 (peptide)
peptide: B1 peptide with Y41L
modifications: Aib at 2, 13, 20; K28 side chain: C20DA-gGlu-gGlu-gGlu-gGlu-gGlu-gGlu-eLys; C-terminal NH2
As for B5, the “EC50, CreLuc assay, 0.5% hP” value turned out to be 0.25 nM with human GLP-1 receptor [4], 0.48 nM with human GIP receptor [5] and 23.7 nM in assay [6]. Besides, the “EC50, CreLuc assay, 100% hP” value in the assay with human GLP-1 receptor [4] turned out to be 2.47 nM; in the assay with human GIP receptor [5], 1.61 nM; in assay [6] it was 53.1 nM.

B6: Compound 87 (peptide)
peptide: B1 peptide with E3D
modifications: Aib at 2, 13, 20; K28 side chain: C20DA-gGlu-gGlu-gGlu-gGlu-gGlu-gGlu-eLys; C-terminal NH2
Turning to B6, the “EC50, CreLuc assay, 0.5% hP” value with human GLP-1 receptor [4] was 0.08 nM; with human GIP receptor [5] it was 0.58 nM; in assay [6] it was 20.7 nM. In addition, the “EC50, CreLuc assay, 100% hP” value was 2 nM in the assay with human GLP-1 receptor [4], 5.65 nM with human GIP receptor [5] and 73.4 nM in assay [6].

B7: Compound 14 (peptide)
peptide: B1 peptide with E24Q, S32R, S33Y, G34Y
modifications: Aib at 2, 13, 20; K28 side chain: C20DA-gGlu-gGlu-gGlu-gGlu-gGlu-gGlu-eLys; C-terminal NH2
In the case of B7, the figures for the “EC50, CreLuc assay, 0.5% hP” value (with human GLP-1 receptor [4]; in the assay with human GIP receptor [5]; in assay [6]) were 0.4 nM, 0.71 nM and 6.85 nM, respectively. Also, the entries for the “EC50, CreLuc assay, 100% hP” value (with human GLP-1 receptor [4]; with human GIP receptor [5]; in assay [6]) were 7.13 nM, 2.22 nM and 28.5 nM, respectively.

B8: Compound 12 (peptide)
peptide: B1 peptide with E24Q, S32E, G34P
modifications: Aib at 2, 13, 20; K28 side chain: C18DA-gGlu-gGlu-gGlu-gGlu-gGlu; C-terminal NH2
On to B8, for which the “EC50, CreLuc assay, 0.5% hP” value in the assay with human GLP-1 receptor [4] worked out at 0.11 nM; with human GIP receptor [5], 0.14 nM; in assay [6], 11.9 nM. Moreover, the “EC50, CreLuc assay, 100% hP” value in the assay with human GLP-1 receptor [4] came out at 4.76 nM; with human GIP receptor [5] it was 1.8 nM; in assay [6], 45.8 nM.

B9: Compound 10 (peptide)
peptide: B1 peptide with G34P, A35E, L37X
modifications: Aib at 2, 13, 20, 37; K28 side chain: C20DA-gGlu-gGlu-gGlu-gGlu-gGlu-gGlu-eK; C-terminal NH2
In the case of B9, the “EC50, CreLuc assay, 0.5% hP” value in the assay with human GLP-1 receptor [4] amounted to 0.11 nM; with human GIP receptor [5], 0.07 nM; in assay [6], 18.2 nM. The “EC50, CreLuc assay, 100% hP” value stood at 2.59 nM with human GLP-1 receptor [4], 1.25 nM with human GIP receptor [5] and 42.2 nM in assay [6].
